Test results reported in patent publication CN116284426A (SUNSHINE GUOJIAN PHARMACEUTICAL SHANGHAI CO LTD, dated 2023).

What was measured:
CD3ε-ECD-his [1] = biological target: T1, CD3ε-ECD-his (UniProt P07766 23-126); experiment: ELISA, CD3ε-ECD-his coated at 1 ug/mL (Table 19)
T1 construct: extracellular domain; also called CD3ε蛋白

[2] = biological target: T2, GUCY2C-Fc蛋白 (human GUCY2C extracellular region fused to human IgG1 Fc) (human, UniProt P25092 24-430); experiment: ELISA, GUCY2C-Fc coated, anti-human IgG Fab HRP (Table 12)
T2 construct: extracellular domain; Made in HEK-293F with an unspecified N-terminal signal peptide; also called 人GUCY2C-Fc蛋白; not shown: human IgG1 Fc at the C-terminus in place of the 6xHis tag
T2 sequence (P25092 24-430 limits assumed): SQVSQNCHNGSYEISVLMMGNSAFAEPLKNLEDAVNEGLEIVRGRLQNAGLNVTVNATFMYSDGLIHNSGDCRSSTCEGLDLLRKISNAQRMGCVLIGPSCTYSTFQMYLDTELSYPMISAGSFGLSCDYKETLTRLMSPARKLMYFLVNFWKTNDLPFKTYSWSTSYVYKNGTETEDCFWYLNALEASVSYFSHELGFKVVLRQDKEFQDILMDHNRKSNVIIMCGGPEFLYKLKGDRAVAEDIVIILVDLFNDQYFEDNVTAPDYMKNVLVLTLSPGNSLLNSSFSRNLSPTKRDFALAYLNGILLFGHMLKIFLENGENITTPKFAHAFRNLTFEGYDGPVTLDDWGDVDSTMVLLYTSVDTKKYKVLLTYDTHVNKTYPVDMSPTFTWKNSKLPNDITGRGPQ

[3] = biological target: T3, GUCY2C-His蛋白 (human GUCY2C extracellular region with C-terminal 6xHis) (human, UniProt P25092 24-430); experiment: ELISA, GUCY2C-His coated, anti-human IgG Fab HRP (Table 10)
T3 construct: extracellular domain; Made in HEK-293F with an unspecified N-terminal signal peptide; also called 人GUCY2C-His蛋白
T3 sequence (P25092 other isoform, or with tags, fused parts or gaps): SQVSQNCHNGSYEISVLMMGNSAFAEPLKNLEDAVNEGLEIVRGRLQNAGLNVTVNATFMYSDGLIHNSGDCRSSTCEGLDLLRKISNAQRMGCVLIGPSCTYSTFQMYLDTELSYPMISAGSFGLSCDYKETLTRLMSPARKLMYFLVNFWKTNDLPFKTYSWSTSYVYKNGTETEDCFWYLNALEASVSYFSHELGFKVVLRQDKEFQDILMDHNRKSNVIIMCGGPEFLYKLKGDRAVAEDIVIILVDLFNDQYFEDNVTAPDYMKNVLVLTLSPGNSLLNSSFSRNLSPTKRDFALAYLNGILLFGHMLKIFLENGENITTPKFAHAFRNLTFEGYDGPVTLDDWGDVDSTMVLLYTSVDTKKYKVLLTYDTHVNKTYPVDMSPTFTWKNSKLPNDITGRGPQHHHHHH

CD3ε-ECD-his [4] = biological target: T1, CD3ε-ECD-his; experiment: ELISA, CD3ε-ECD-his coated at 1 ug/mL, anti-human IgG Fab HRP (Table 14)
[5] = biological target: T3, GUCY2C-His蛋白 (human GUCY2C …); experiment: ELISA, GUCY2C-His coated, anti-human IgG Fab HRP (Table 17)
CD3ε-ECD-his [6] = biological target: T1, CD3ε-ECD-his; experiment: ELISA, CD3ε-ECD-his coated; reference SP34
[7] = biological target: GUCY2C on tumour cells (CW2, CW2-GCC#1, T84) (human, UniProt P25092 24-1073); experiment: cell-based or functional assay
Chain of GUCY2C on tumour cells (CW2, CW2-GCC#1, T84) (P25092 24-1073): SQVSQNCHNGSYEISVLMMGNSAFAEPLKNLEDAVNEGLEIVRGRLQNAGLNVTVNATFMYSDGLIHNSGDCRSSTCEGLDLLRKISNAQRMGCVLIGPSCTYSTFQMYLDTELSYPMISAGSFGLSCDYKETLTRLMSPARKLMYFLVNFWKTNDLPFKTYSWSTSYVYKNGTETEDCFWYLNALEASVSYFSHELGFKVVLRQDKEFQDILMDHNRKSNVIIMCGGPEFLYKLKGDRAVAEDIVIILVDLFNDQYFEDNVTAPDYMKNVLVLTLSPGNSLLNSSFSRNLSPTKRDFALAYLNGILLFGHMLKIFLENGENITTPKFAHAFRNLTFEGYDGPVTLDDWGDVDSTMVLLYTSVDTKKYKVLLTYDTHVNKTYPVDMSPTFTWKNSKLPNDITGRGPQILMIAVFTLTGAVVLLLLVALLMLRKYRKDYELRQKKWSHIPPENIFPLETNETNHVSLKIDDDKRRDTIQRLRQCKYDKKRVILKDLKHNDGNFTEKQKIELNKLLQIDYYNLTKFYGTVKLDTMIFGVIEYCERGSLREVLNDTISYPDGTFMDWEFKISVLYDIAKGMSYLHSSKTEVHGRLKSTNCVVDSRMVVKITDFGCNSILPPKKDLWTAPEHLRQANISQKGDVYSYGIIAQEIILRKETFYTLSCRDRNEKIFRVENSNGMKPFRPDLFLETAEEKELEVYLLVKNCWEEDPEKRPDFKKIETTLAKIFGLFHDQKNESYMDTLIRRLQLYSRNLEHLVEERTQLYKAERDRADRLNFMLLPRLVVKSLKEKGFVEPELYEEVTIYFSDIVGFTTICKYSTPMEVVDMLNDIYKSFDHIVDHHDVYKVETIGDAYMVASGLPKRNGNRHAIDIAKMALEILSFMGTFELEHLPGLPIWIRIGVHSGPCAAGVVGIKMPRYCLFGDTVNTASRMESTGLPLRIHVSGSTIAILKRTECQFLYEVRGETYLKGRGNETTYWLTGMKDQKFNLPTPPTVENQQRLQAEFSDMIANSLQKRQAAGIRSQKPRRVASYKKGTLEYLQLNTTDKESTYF

[8] = biological target: T2, GUCY2C-Fc蛋白 (human GUCY2C extracellular …); experiment: ELISA, GUCY2C-Fc coated, anti-human IgG Fab HRP (Table 18)

T1 sequence (P07766 other isoform, or with tags, fused parts or gaps): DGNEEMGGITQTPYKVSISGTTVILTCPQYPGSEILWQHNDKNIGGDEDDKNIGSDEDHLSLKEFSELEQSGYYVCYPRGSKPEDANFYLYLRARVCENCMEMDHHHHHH

Row | Binder | EC50 (CD3ε-ECD-his [1]) | EC50 [2] | EC50 [3] | EC50 (CD3ε-ECD-his [4]) | EC50 [5] | fold weaker affinity than SP34 (CD3ε-ECD-his [6]) | IC50 of T-cell-mediated killing of T84 cells [7] | EC50 [8]
1 | SP34 (humanized anti-CD3 monoclonal antibody) (antibody, human IgG1, kappa, V domains shown, Full-length humanized IgG1/kappa made in HEK293F and purified on Protein A; also called SP34-HC/SP34-LC) VH: EVQLVESGGGLVQPGGSLRLSCAASGFTFNTYAMNWVRQAPGKGLEWVARIRSKYNNYATYYADSVKDRFTISRDDSKNTLYLQMNSLRAEDTAVYYCVRHGNFGNSYVSWFAYWGQGTLVTVSS VL: QAVVTQEPSLTVSPGGTVTLTCRSSTGAVTTSNYANWVQQKPGQAPRGLIGGTNKRAPGVPARFSGSLLGGKAALTLSGAQPEDEAEYYCALWYSNLWVFGQGTKVEIKR | 0.154 nM |  |  |  |  |  |  | 
2 | SP4VHL-32H2-L (bispecific antibody, human IgG1, kappa, also called 结构18) heavy: not shown light: EVQLVESGGGLVQPGGSLRLSCAASGFTFNTYAMNWVRQAPGKGLEWVARIRSKYNNYATYYADSVKDRFTISRDDSKNTLYLQMNSLRAEDTAVYYCVRHGNFGNSYVSWFAYWGQGTLVTVSSGGGGSGGGGSGGGGSGGGGSQAVVTQEPSLTVSPGGTVTLTCRSSTGAVTTSNYANWVQQKPGQAPRGLIGGTNKRAPGVPARFSGSLLGGKAALTLSGAQPEDEAEYYCALWYSNLWVFGQGTKVEIKGGGGSGGGGSGGGGSDVVMTQSPLSLPVTLGQPASISCRSSQSLVYNNGNTYLHWYQQRPGQSPRLLIYKVSNRFSGVPDRFSGSGSGTDFTLKISRVEAEDVGVYFCSQSTHVPLTFGQGTKVEIKRTVAAPSVFIFPPSDEQLKSGTASVVCLLNNFYPREAKVQWKVDNALQSGNSQESVTEQDSKDSTYSLSSTLTLSKADYEKHKVYACEVTHQGLSSPVTKSFNRGEC |  | 0.78 nM | 1.21 nM | 1.16 nM |  |  |  | 
3 | 32H2CH1-SP4VHL-hik (bispecific antibody, human IgG1, kappa, also called 结构8) heavy 1: EVQLVESGGGLVKPGGSLRLSCAASGFSFRTYAMSWVRQAPGKSLEWVATISSGSSYIYYPDSVKGRFTVSRDNAKNSLYLQMNSLRAEDTAVYYCTCYRMETFEYWGQGTLVTVSSASTKGPSVFPLAPSSKSTSGGTAALGCLVKDYFPEPVTVSWNSGALTSGVHTFPAVLQSSGLYSLSSVVTVPSSSLGTQTYICNVNHKPSNTKVDKKVEPKSCGGGGSGGGGSGGGGSEVQLVESGGGLVQPGGSLRLSCAASGFTFNTYAMNWVRQAPGKGLEWVARIRSKYNNYATYYADSVKDRFTISRDDSKNTLYLQMNSLRAEDTAVYYCVRHGNFGNSYVSWFAYWGQGTLVTVSSGGGGSGGGGSGGGGSGGGGSQAVVTQEPSLTVSPGGTVTLTCRSSTGAVTTSNYANWVQQKPGQAPRGLIGGTNKRAPGVPARFSGSLLGGKAALTLSGAQPEDEAEYYCALWYSNLWVFGQGTKVEIKGGGSDKTHTCPPCPAPELLGGPSVFLFPPKPKDTLMISRTPEVTCVVVDVSHEDPEVKFNWYVDGVEVHNAKTKPREEQYNSTYRVVSVLTVLHQDWLNGKEYKCKVSNKALPAPIEKTISKAKGQPREPQVYTLPPCREEMTKNQVSLSCAVKGFYPSDIAVEWESNGQPENNYKTTPPVLDSDGSFFLVSKLTVDKSRWQQGNVFSCSVMHEALHNHYTQKSLSLSPGK heavy 2: not shown light: DVVMTQSPLSLPVTLGQPASISCRSSQSLVYNNGNTYLHWYQQRPGQSPRLLIYKVSNRFSGVPDRFSGSGSGTDFTLKISRVEAEDVGVYFCSQSTHVPLTFGQGTKVEIKRTVAAPSVFIFPPSDEQLKSGTASVVCLLNNFYPREAKVQWKVDNALQSGNSQESVTEQDSKDSTYSLSSTLTLSKADYEKHKVYACEVTHQGLSSPVTKSFNRGEC | 1.92 nM |  |  |  | 0.428 nM | ~10 fold | 0.002 nM | 0.869 nM
4 | 32H2-SP4VHL (bispecific antibody, human IgG1, kappa, also called 结构1) heavy: not shown light: DVVMTQSPLSLPVTLGQPASISCRSSQSLVYNNGNTYLHWYQQRPGQSPRLLIYKVSNRFSGVPDRFSGSGSGTDFTLKISRVEAEDVGVYFCSQSTHVPLTFGQGTKVEIKRTVAAPSVFIFPPSDEQLKSGTASVVCLLNNFYPREAKVQWKVDNALQSGNSQESVTEQDSKDSTYSLSSTLTLSKADYEKHKVYACEVTHQGLSSPVTKSFNRGEC |  | 0.29 nM | 0.26 nM | 0.3 nM |  |  |  | 
5 | SP4VHL-32H2-KIH (bispecific antibody) chain 1: not shown chain 2: EVQLVESGGGLVKPGGSLRLSCAASGFSFRTYAMSWVRQAPGKSLEWVATISSGSSYIYYPDSVKGRFTVSRDNAKNSLYLQMNSLRAEDTAVYYCTCYRMETFEYWGQGTLVTVSSASTKGPSVFPLAPSSKSTSGGTAALGCLVKDYFPEPVTVSWNSGALTSGVHTFPAVLQSSGLYSLSSVVTVPSSSLGTQTYICNVNHKPSNTKVDKKVEPKSCDKTHTCPPCPAPELLGGPSVFLFPPKPKDTLMISRTPEVTCVVVDVSHEDPEVKFNWYVDGVEVHNAKTKPREEQYNSTYRVVSVLTVLHQDWLNGKEYKCKVSNKALPAPIEKTISKAKGQPREPQVYTLPPCREEMTKNQVSLSCAVKGFYPSDIAVEWESNGQPENNYKTTPPVLDSDGSFFLVSKLTVDKSRWQQGNVFSCSVMHEALHNHYTQKSLSLSPGK chain 3: DVVMTQSPLSLPVTLGQPASISCRSSQSLVYNNGNTYLHWYQQRPGQSPRLLIYKVSNRFSGVPDRFSGSGSGTDFTLKISRVEAEDVGVYFCSQSTHVPLTFGQGTKVEIKRTVAAPSVFIFPPSDEQLKSGTASVVCLLNNFYPREAKVQWKVDNALQSGNSQESVTEQDSKDSTYSLSSTLTLSKADYEKHKVYACEVTHQGLSSPVTKSFNRGEC | 2.37 nM |  |  |  | 0.405 nM | ~10 fold |  | 0.752 nM
6 | SP4VHL-32H2-hik (bispecific antibody) chain 1: EVQLVESGGGLVQPGGSLRLSCAASGFTFNTYAMNWVRQAPGKGLEWVARIRSKYNNYATYYADSVKDRFTISRDDSKNTLYLQMNSLRAEDTAVYYCVRHGNFGNSYVSWFAYWGQGTLVTVSSGGGGSGGGGSGGGGSGGGGSQAVVTQEPSLTVSPGGTVTLTCRSSTGAVTTSNYANWVQQKPGQAPRGLIGGTNKRAPGVPARFSGSLLGGKAALTLSGAQPEDEAEYYCALWYSNLWVFGQGTKVEIKGGGGSGGGGSGGGGSEVQLVESGGGLVKPGGSLRLSCAASGFSFRTYAMSWVRQAPGKSLEWVATISSGSSYIYYPDSVKGRFTVSRDNAKNSLYLQMNSLRAEDTAVYYCTCYRMETFEYWGQGTLVTVSSASTKGPSVFPLAPSSKSTSGGTAALGCLVKDYFPEPVTVSWNSGALTSGVHTFPAVLQSSGLYSLSSVVTVPSSSLGTQTYICNVNHKPSNTKVDKKVEPKSCDKTHTCPPCPAPELLGGPSVFLFPPKPKDTLMISRTPEVTCVVVDVSHEDPEVKFNWYVDGVEVHNAKTKPREEQYNSTYRVVSVLTVLHQDWLNGKEYKCKVSNKALPAPIEKTISKAKGQPREPQVYTLPPCREEMTKNQVSLSCAVKGFYPSDIAVEWESNGQPENNYKTTPPVLDSDGSFFLVSKLTVDKSRWQQGNVFSCSVMHEALHNHYTQKSLSLSPGK chain 2: not shown chain 3: DVVMTQSPLSLPVTLGQPASISCRSSQSLVYNNGNTYLHWYQQRPGQSPRLLIYKVSNRFSGVPDRFSGSGSGTDFTLKISRVEAEDVGVYFCSQSTHVPLTFGQGTKVEIKRTVAAPSVFIFPPSDEQLKSGTASVVCLLNNFYPREAKVQWKVDNALQSGNSQESVTEQDSKDSTYSLSSTLTLSKADYEKHKVYACEVTHQGLSSPVTKSFNRGEC | 4.02 nM |  |  |  | 0.733 nM | ~10 fold |  | 1.08 nM
7 | 32H2CH1-SP4VHL-KIH (bispecific antibody, human IgG1, kappa, also called 结构9) heavy 1: not shown heavy 2: EVQLVESGGGLVKPGGSLRLSCAASGFSFRTYAMSWVRQAPGKSLEWVATISSGSSYIYYPDSVKGRFTVSRDNAKNSLYLQMNSLRAEDTAVYYCTCYRMETFEYWGQGTLVTVSSASTKGPSVFPLAPSSKSTSGGTAALGCLVKDYFPEPVTVSWNSGALTSGVHTFPAVLQSSGLYSLSSVVTVPSSSLGTQTYICNVNHKPSNTKVDKKVEPKSCDKTHTCPPCPAPELLGGPSVFLFPPKPKDTLMISRTPEVTCVVVDVSHEDPEVKFNWYVDGVEVHNAKTKPREEQYNSTYRVVSVLTVLHQDWLNGKEYKCKVSNKALPAPIEKTISKAKGQPREPQVYTLPPCREEMTKNQVSLSCAVKGFYPSDIAVEWESNGQPENNYKTTPPVLDSDGSFFLVSKLTVDKSRWQQGNVFSCSVMHEALHNHYTQKSLSLSPGK light: DVVMTQSPLSLPVTLGQPASISCRSSQSLVYNNGNTYLHWYQQRPGQSPRLLIYKVSNRFSGVPDRFSGSGSGTDFTLKISRVEAEDVGVYFCSQSTHVPLTFGQGTKVEIKRTVAAPSVFIFPPSDEQLKSGTASVVCLLNNFYPREAKVQWKVDNALQSGNSQESVTEQDSKDSTYSLSSTLTLSKADYEKHKVYACEVTHQGLSSPVTKSFNRGEC | 1.31 nM |  |  |  | 0.264 nM | ~10 fold | 0.366 nM | 0.681 nM
